# Laboratory results published in patent publication US6967100B2, “Pancreatic islet cell growth factors” (The Walter and Eliza Hall Institute of Medical Research, priority 2000, dated 2005).
# B1: BMP 6: recombinant human BMP 6 purchased from R&D Systems (protein, UniProt P22004 375-513, looked up)
# Bone morphogenetic protein 6: SASSRRRQQSRNRSTQSQDVARVSSASDYNSSELKTACRKHELYVSFQDLGWQDWIIAPKGYAANYCDGECSFPLNAHMNATNHAIVQTLVHLMNPEYVPKPCCAPTKLNAISVLYFDDNSNVILKKYRNMVVRACGCH
# Key:
# Type in all cases: cell-based
# [1] = test system: E15.5 CBA mouse fetal pancreas cells; test: Cystic colony formation of E15.5 fetal mouse pancreas cells in laminin-1 overlay culture; settings: BMP alone
# C2C12 myoblasts = test: C2C12 cell BMP bioassay (transformation of myoblasts into alkaline phosphatase-containing osteoblasts); settings: conditioned medium of stably transfected CHO cells, compared to medium of untransfected CHO cells
# Experimental: BMP activity was measured in the C2C12 cell bioassay, in which BMPs transform C2C12 myoblasts into alkaline phosphatase-containing osteoblasts (Katagiri et al., 1994). Briefly, CHO cells were plated at a density of around 5×10^6 per 75 cm^2 flask in serum-free HYBRIDOMA medium (Gibco BRL Life Technology) (SFHM) containing 10% v/v FCS. Once the cells had reached confluency, the medium was removed, the cells washed twice with SFHM and 10 ml of SFHM then added to each flask. The cells were cultured for four days and the conditioned medium collected, filtered through a 2 micron filter and stored at 4° C.
# 2×10^3 C2C12 cells were plated into each well of a 96-well tissue culture plate in DME/10% v/v FCS. Twenty-four hours later, the medium was removed and replaced with 100 μl SFHM/1% v/v FCS. 50 μl of each conditioned medium was added in duplicate to the top row of the 96-well plate and the volume of these wells then made up to 200 μl. Using a multi-channel pipette, 100 μl from each well was then serially transferred to subsequent rows thus diluting the conditioned medium 2-fold with each transfer. After incubation for five days, the media were discarded and the cells washed with normal saline. Cells were lysed for 10 mins at room temperature (RT) in 100 μl 0.5% v/v TritonX-100 and 100 mM diethanolamine (pH 9.5) in normal saline. To each well was then added an aqueous solution containing 10 mM diethanolamine, 1 mg/ml p-nitrophenyl phosphate (PNPP) and 0.5 mM MgCl2. The yellow reaction product catalyzed by alkaline phosphatase was allowed to develop for 10-60 mins before reading absorption at 415 nm.
# [2] = test system: E15.5 CBA mouse fetal pancreas cells; test: Cystic colony formation of E15.5 fetal mouse pancreas cells in laminin-1 overlay culture; settings: laminin-1 160 μg/ml
# Experimental: Pancreata were dissected from embryonic day (E)15.5 CBA mouse fetuses and dissociated into single cells as described (Jiang et al., 1999). Briefly, dissected pancreas was digested with trypsin/EDTA for 15 minutes at 37° C. in a shaking water bath. Cells were counted in a haemocytometer and viability determined by trypan blue dye exclusion. Each fetal pancreas yielded 50,000 viable cells (48,509±11,299, n=14). Dissociated cells were plated in 8 well chamber slides (Nunc, Naperville, USA) at 7.5×10^4 cells/well in 0.3 ml AIM V medium supplemented with N-2 (1:100, Gibco BRL Life Technologies, Gaithersburg, USA), 500 UI/ml penicillin and 500 μg/ml streptomycin. Laminin-1 (160 μg/ml), purified from murine Engelbreth-Holm-Swarm tumor basement membrane (Becton Dickinson Labware, Bedford, USA), was overlayed on cells in the presence of various growth factors. Cultures were incubated in 10% CO2 90% air at 37° C., for up to 6 days. Recombinant human BMP 6 and BMP 5, recombinant human TGF-β1 and recombinant activin A were purchased from R&D Systems (Minneapolis, USA). These factors, dissolved at a concentration of 10 ng/μl in mouse tonicity phosphate buffered saline (PBS) containing 0.1% w/v bovine serum albumin (BSA), were added at the start of culture. Phase contrast images of colonies were photographed with Olympus IX70 digitized camera.
# Colony formation was assessed at day 6 of culture. A colony was defined as a cellular sphere ≧30 μm in diameter, which contained more than 20 cells. The number of colonies per well was counted directly under a inverted microscope at ×10. Colony counts were performed using a blind design.
molecule,measurement,setting,value
B1,colony formation in the absence of laminin-1,[1],no effect
same,BMP activity of conditioned medium (alkaline phosphatase activity of C2C12 cells),C2C12 myoblasts,significant BMP activity was never detected
same,concentration of maximal stimulation of colony formation,"[2]; day 6, fewer colonies at higher concentrations",10 ng/mL
same,formation of cystic colonies in the presence of laminin-1,[2]; up to 6 days,synergized with laminin-1 to promote formation of cystic colonies
